In publication PMC5915145, “CNPY2 inhibits MYLIP-mediated AR protein degradation in prostate cancer cells” (Oncotarget, 2018):

Biological target: T1, recombinant UBE2D1-His (UniProt P51668 1-147)
T1 construct: UBE2D1 (UbcH5a), E2 ubiquitin conjugating enzyme; The methods of the pull-down call it UBE2D-His; also called UBE2D-His; source: E. coli, recombinant (pET29a (+) or pGEX4T1 vector); purification not described; not shown: His, C-terminal, kept
Test: pull-down; GST-RING (8 ug) on Glutathione Sepharose beads with recombinant UBE2D-His (5 ug) or immunoprecipitated FLAG-CNPY2 (5 or 15 ug), 4 C, 30 min; 50 mM Tris-HCl pH 7.5, 150 mM NaCl, 5 mM EDTA, 0.5% NP40; immunoblotting
Conditions: both partners purified

T1 sequence (P51668 whole entry): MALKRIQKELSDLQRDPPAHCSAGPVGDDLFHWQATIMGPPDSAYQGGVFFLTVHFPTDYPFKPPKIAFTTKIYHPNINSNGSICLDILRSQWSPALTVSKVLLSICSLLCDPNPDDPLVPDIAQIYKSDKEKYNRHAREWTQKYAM

binding result: binds
B1: recombinant GST-fused RING domain of MYLIP (344-445 a.a.) (domain or fragment, UniProt Q8WY64 344-445, looked up)
chain: QSPSHSPLKSSESSMNCSSCEGLSCQQTRVLQEKLRKLKEAMLCMVCCEEEINSTFCPCGHTVCCESCAAQLQSCPVCRSRVEHVQHVYLPTHTSLLNLTVI
notes: MYLIP, RING domain, residues 344-445; Held on Glutathione Sepharose beads in the pull-down; pGEX4T1 vector); also called GST-RING; MYLIP RING; source: E. coli BL21 (DE3), purified (Glutathione Sepharose, eluted with 40 mM reduced glutathione); not shown: GST, N-terminal, kept
